Experimental data taken from article PMC6150488 (Cell reports, 2018).

Target: glycogen-synthase kinase 3β (GSK3β) (UniProt P49841 1-420)
Assay: SPR

Kd: 165 nM
B1: Nav1.6 C-terminal tail (domain or fragment)
chain: LENFSVATEESADPLSEDDFETFYEIWEKFDPDATQFIEYCKLADFADALEHPLRVPKPNTIELIAMDLPMVSGDRIHCLDILFAFTKRVLGDSGELDILRQQMEERFVASNPSKVSYEPITTTLRRKQEEVSAVVLQRAYRGHLARRGFICKKTTSNKLENGGTHREKKESTPSTASLPSYDSVTKPEKEKQQRAEEGRRERAKRQKEVRESKC
